What was measured:
[1] = molecular target: T1, extracellular domain of Ep-CAM (UniProt P16422 24-265, DIGylated (sites not given)); assay: AlphaScreen competition
T1 chain: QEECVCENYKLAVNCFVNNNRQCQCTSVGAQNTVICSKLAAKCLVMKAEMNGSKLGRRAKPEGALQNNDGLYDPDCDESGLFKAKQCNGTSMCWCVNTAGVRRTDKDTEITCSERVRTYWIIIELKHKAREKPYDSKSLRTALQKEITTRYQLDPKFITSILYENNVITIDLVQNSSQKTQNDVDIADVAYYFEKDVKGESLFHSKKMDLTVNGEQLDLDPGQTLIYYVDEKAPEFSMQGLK

FcγRIIIa (158V form) = FcγRIIIa (158V form) (human, UniProt P08637 17-208); assay: AlphaScreen competition
Chain of FcγRIIIa (158V form) (P08637 17-208 F176V): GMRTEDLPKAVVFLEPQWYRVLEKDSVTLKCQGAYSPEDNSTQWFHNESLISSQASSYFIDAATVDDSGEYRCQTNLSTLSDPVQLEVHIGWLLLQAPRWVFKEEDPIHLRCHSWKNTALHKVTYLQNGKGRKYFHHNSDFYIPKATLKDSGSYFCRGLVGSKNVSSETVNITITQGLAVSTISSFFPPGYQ

H1L4 = assay: SPR
H3L2 = assay: SPR
H4L3 = assay: SPR
H1L3 = assay: SPR
H3L3 = assay: SPR
H4L4 = assay: SPR
H2L1 = assay: SPR
H3L1 = assay: SPR
H3L4 = assay: SPR
H2L3 = assay: SPR
H2L4 = assay: SPR
H6L4 = assay: SPR
H6L3 = assay: SPR
H4L1 = assay: SPR
H1L1 = assay: SPR
[2] = molecular target: H3.77_L3 I332E/H268E Hybrid
[3] = molecular target: H3.77_L3 I332E/G236A Hybrid
[4] = molecular target: H3.77_L3 S239D/I332E Hybrid
[5] = molecular target: H3.77_L3 S239D/I332E/A330Y Hybrid
[6] = molecular target: H3.77_L3 S239D/I332E/G236A Hybrid
[7] = molecular target: H3.77_L3 I332E/H268E/G236A Hybrid
[8] = molecular target: H3.77_L3 S239D/H268E Hybrid

B1: 17-1A H0 (antibody)
chain: QVQLQQSGAELVRPGTSVKVSCKASGYAFTNYLIEWVKQRPGQGLEWIGVINPGSGGTNYNEKFKGKATLTADKSSSTAYMQLSSLTSDDSAVYFCARDGPWFAYWGQGTLVTVSA
IC50 [1]: 333 nM | IC50 (FcγRIIIa (158V form)): 32.7 nM

B2: EpCAM (Fc fusion)
chain: QEECVCENYKLAVNCFVNNNRQCQCTSVGAQNTVICSKLAAKCLVMKAEMNGSKLGRRAKPEGALQNNDGLYDPDCDESGLFKAKQCNGTSMCWCVNTAGVRRTDKDTEITCSERVRTYWIIIELKHKAREKPYDSKSLRTALQKEITTRYQLDPKFITSILYENNVITIDLVQNSSQKTQNDVDIADVAYYFEKDVKGESLFHSKKMDLTVNGEQLDLDPGQTLIYYVDEKAPEFSMQGLK
Kd (H1L4): 58.9 nM | Kd (H3L2): 615 nM | Kd (H4L3): 1310 nM | Kd (H1L3): 54.1 nM | Kd (H3L3): 292 nM | Kd (H4L4): 3000 nM | Kd (H2L1): 75.4 nM | Kd (H3L1): 385 nM | Kd (H3L4): 335 nM | Kd (H2L3): 63 nM | Kd (H2L4): 66.6 nM | Kd (H6L4): 5.2 µM | Kd (H6L3): 4.8 µM | Kd (H4L1): 6.6 µM | Kd (H1L1): 77.8 nM

B3: FcgRIIb (receptor)
chain: TPAAPPKAVLKLEPQWINVLQEDSVTLTCRGTHSPESDSIQWFHNGNLIPTHTQPSYRFKANNNDSGEYTCQTGQTSLSDPVHLTVLSEWLVLQTPHLEFQEGETIVLRCHSWKDKPLVKVTFFQNGKSKKFSRSDPNFSIPQANHSHSGDYHCTGNIGYTLYSSKPVTITVQAP
Kd [2]: 117 nM | Kd [3]: 557 nM | Kd [4]: 142 nM | Kd [5]: 144 nM | Kd [6]: 146 nM | Kd (H3.77_L3 WT Hybrid): 635 nM | Kd [7]: 154 nM | Kd [8]: 81.5 nM

B4: R131 FcgRIIa (receptor)
chain: QAAAPPKAVLKLEPPWINVLQEDSVTLTCQGARSPESDSIQWFHNGNLIPTHTQPSYRFKANNNDSGEYTCQTGQTSLSDPVHLTVLSEWLVLQTPHLEFQEGETIMLRCHSWKDKPLVKVTFFQNGKSQKFSRLDPTFSIPQANHSHSGDYHCTGNIGYTLFSSKPVTITVQVPSMGSSSPMG
Kd [2]: 86.1 nM | Kd [3]: 54.4 nM | Kd [4]: 78.9 nM | Kd [5]: 88.9 nM | Kd [6]: 13.7 nM | Kd (H3.77_L3 WT Hybrid): 413 nM | Kd [8]: 42.7 nM

Reference: patent US20070161783A1 (published 2007)
